From patent US20030129189A1, “Tumor necrosis factor-gamma” (priority 1994, published 2003)
Read-outs that look alike come from different tables or passages of the source.

How the values were obtained:
DR3 = experiment: FACS binding of FLAG-tagged soluble TL1β to cells transfected with DR3; parameters: species or system human
Protocol: A FLAG-tagged soluble form of the TL1 (aa 72-251) protein was tested for binding of cells transiently transfected with different members of the TNFR family, including TNFR2, LTβR, 4-1BB, CD27, CD30, BCMA, DR3, DR4, DR5, DR6, DcR1, DcR2, RANK, HveA, and AITR. […] The small shift (˜30%) seen when full length DR3 was used is likely due to the presence of low DR3-expressing cells while DR3 overexpressed cells undergone apoptosis.
(§1) One million cells, in 0.1 ml of FACS buffer (PBS, 0.1% BSA, 0.1% NaN3), were incubated with 0.1-1 microgram of protein or antibody at RT for 15 min. The cells were washed with 3 ml of FACS buffer, reacted with biotinylated primary antibody, and stained with PE-conjugated secondary antibody at RT for 15 min. Cells were then washed again, resuspended in 0.5 microgram/ml of propidium iodide, and live cells were gated and analyzed on a FACScan using the CellQuest software (BD Biosciences).

TNF-gamma-beta [1] = molecular target: T1, TNF-gamma-beta (Homo sapiens, UniProt O95150); experiment: Inhibition of TNF-gamma-beta activation of NF-κB in 293T cells; format: cell-based
T1 construct: made in house; host or cells: E. coli (untagged) or 293T (FLAG-tagged)
T1 sequence (O95150 72-251): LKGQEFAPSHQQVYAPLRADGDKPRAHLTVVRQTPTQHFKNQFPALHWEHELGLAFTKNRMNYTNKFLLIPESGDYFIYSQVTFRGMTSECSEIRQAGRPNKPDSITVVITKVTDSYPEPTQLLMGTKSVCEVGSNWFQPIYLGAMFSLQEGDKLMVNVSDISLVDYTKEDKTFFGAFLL
Protocol: To avoid spontaneous apoptosis or NF-κB activation accompanied with DR3 overexpression, a limited amount of DR3-expression DNA that by itself minimally activated these pathways was used.
293T cells were transiently transfected using LipofectAMINE and PLUS reagents according to the manufacturer's instruction (Invitrogen). For reporter assays, 293T cells, at 5×10^5 cells/well, were seeded in 6-well plates and transfected with a total of 1 microgram of DNA. pC4 DNA was used as filler DNA. Conditioned supernatant was collected 24 hr post-transfection and assayed for secreted alkaline phosphatase (SEAP) activity using the Phospha-Light™ chemiluminescent reporter gene assay system (Tropix). pCMV-lacZ was used as internal control for transfection efficiency normalization.

TNF-gamma-beta [2] = molecular target: T2, TNF-gamma-beta (Homo sapiens, UniProt O95150); experiment: Neutralization of TNF-gamma-beta induced SEAP production in TF-1/SRE reporter cells; format: cell-based; settings: TNF-gamma-beta at 200 ng/mL, TF1/SRE reporter cells
T2 construct: made in house; host or cells: 293T cells, transient transfection
T2 sequence (O95150 72-251 limits assumed): T1 sequence (O95150 72-251)
Protocol: (§2) Briefly, a poly-D-lysine coated 96-well plate is seeded with TF-1/SRE-SEAP cells (in RPMI+0.2% Fetal bovine serum) at 75,000 cells per well. […] Again cells were incubated overnight. After overnight incubation, conditioned media were collected and SEAP activity was determined using the SEAP Reporter Gene Assay available from Roche Molecular Biochemicals (Indianapolis, Ind.) according to the manufacturer's directions. Briefly, Conditioned media were diluted 1:4 into dilution buffer. Samples were incubated at 65C for 30 minutes to eliminate contaminating AP activity usually present in culture medium. 25 microliters of the heat-inactivated samples were mixed with equal volume of inactivation buffer (containing a mixture of differential alkaline phosphatase inhibitors). Following a 5-minute incubation at room temperature, 50 uL of alkaline phosphatase substrate (CSPD) was added to each well. Chemiluminescence signal was read 10-15 minutes later using a luminometer.
These solutions were then incubated for 1 hour at room temperature. […] After the overnight incubation, the SEAP assay was performed as described above.
(§3) The premyeloid cell line TF-1 was stably transfected with SRE/SEAP (Signal Response Element/Secreted Alkaline Phosphatase) reporter plasmid that responds to the SRE signal transduction pathway.

TNF-gamma-beta [3] = molecular target: T1, TNF-gamma-beta; experiment: Inhibition of TNF-gamma-beta induced caspase activation in TF-1 cells; format: cell-based; settings: presence of cycloheximide
Protocol: Briefly, cells growing in microtiter plates are induced to undergo apoptosis, causing an activation of caspase activities. Equal volume of a caspase substrate (Asp-Glu-Val-Asp-Rhodamine 110, or DEVD-R110) solution is then added and incubated for at least 1 hour. During this incubation, cells are being lysed and free R110 is released from the substrate. The level of free R110 is determined fluorimetrically, using a fluorescence reader with excitation filter 470-500 nm and emission filter 500-560 nm.
A black 96-well plate with a clear bottom is seeded with 75,000 TF-1 cells in RPMI containing 1% fetal bovine serum and micrograms/milliliter cyclohexamide. […] Following the manufacturer's directions, an equal volume of 1×substrate solution containing 50 micromolar DEVD-R110 diluted in incubation buffer is added to each well. The 96-well plates are then incubated for 2 hours after which the plate is read in a fluorescence reader with an excitation filter at 485 nm and an emission filter at 535 nm.
These solutions were then incubated for 1 hour at room temperature.
The reagents were incubated for 1 hour at RT to allow the formation of protein-TNF-gamma-beta complexes and then added to the cells. Caspase activity was measured as described above.

TNF-gamma-beta [4] = molecular target: T2, TNF-gamma-beta; experiment: Coimmunoprecipitation of TNF-gamma-beta by TNFR-Fc proteins; format: binding
Source text: The beads were then precipitated and washed extensively with PBST buffer (PBS, 0.5% Triton X-100) before boiled in SDS-sample buffer. Proteins were resolved on 4-20% Tris-Glycine gels (NOVEX), transferred to nitrocellulose membranes, and blotted with anti-Flag M2 monoclonal antibody (1 microgram/ml, Sigma) andhorseradish peroxidase (HRP)-conjugated goat anti-mouse IgG antibody (0.5 microgram/ml).

TF-1/SRE-SEAP cells = experiment: SEAP assay: TNF-gamma-beta induced SEAP in TF-1/SRE-SEAP reporter cells; format: cell-based; settings: without TNF-gamma-beta
Protocol: as §2, §3

TNF-gamma-beta [5] = molecular target: T3, TNF-gamma-beta (Homo sapiens, UniProt O95150); experiment: FACS binding of receptor-Fc proteins to cells expressing full length TNF-gamma-beta
T3 construct: expressed in transfected cells
T3 sequence (O95150 1-251): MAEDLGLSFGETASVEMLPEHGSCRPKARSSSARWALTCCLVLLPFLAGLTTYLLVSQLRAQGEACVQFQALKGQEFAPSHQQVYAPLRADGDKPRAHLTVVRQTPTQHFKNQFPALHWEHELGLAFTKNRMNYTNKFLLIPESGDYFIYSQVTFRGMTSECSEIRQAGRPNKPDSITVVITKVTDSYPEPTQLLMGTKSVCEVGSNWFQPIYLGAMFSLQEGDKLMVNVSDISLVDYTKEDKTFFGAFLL
Protocol: These cells were used to screen the Fc-fusion form of the extracellular domain of TNFR family members, including TNFR1, Fas, HveA, DR3, DR4, DR5, DR6, DcR1, DcR2, TR6, OPG, RANK, AITR, TAC1, CD40, and OX40. […] TR6 has been previously described as a decoy receptor (Pitti et al., Nature 396:699-703 (1998); Yu et al., J. Biol. Chem. 274:13733-6 (1999)) capable of competing with Fas and HveA for binding of FasL and LIGHT, respectively.
Cells resistant to 0.5 mg/ml Genticin (Invitrogen) were selected and expanded. Expression of TNF-gamma-beta mRNA was confirmed by quantitative RT-PCR analysis and surface expression of TNF-gamma-beta protein confirmed by FACS analyses using TNF-gamma-beta monoclonal antibodies.
as §1

TNF-gamma-beta [6] = molecular target: T1, TNF-gamma-beta; experiment: Inhibition of TNF-gamma-beta-mediated IFNγ secretion from T cells; format: cell-based; settings: costimulated T cells
Protocol: The extent of the increase in IL-2 receptor expression is consistent with the moderate increase in IL-2 responsiveness compared with IL-2 itself.
1×10^5 cells/ml of purified T cells were seeded in a 24-well tissue culture plate that had been coated with anti-CD3 (0.3 microgram/ml) and anti-CD28 (5.0 microgram/ml) overnight at 4° C. […] ELISA assay for IFNγ, GM-CSF, IL-2 IL-4, IL-10 and TNFα were performed using kits purchased from R & D Systems. Recombinant human IL-2 (5 ng/ml) was used as a positive control. All samples were tested in duplicate and results were expressed as an average of duplicate samples plus or minus error.

primary T cells = experiment: Caspase assay in PHA-activated primary T cells; format: cell-based, human; settings: presence or absence of cycloheximide
Protocol: Overexpression of DR3 in cell lines induces capase activation (Chinnaiyan et al., Science 274:990-2 (1996); Kitson et al., Nature 384:372-5 (1996); Marsters et al., Curr. Biol. 6:1669-76 (1996); Bodmer et al., Immunity 6:79-88 (1997)). We tested whether TL1β could induce caspase activation in primary T cells.
TF-1 cells or PHA-activated primary T cells were seeded at 75,000 cells/well in a black 96-well plate with clear bottom (Becton Dickinson) in RPMI Medium containing 1% fetal bovine serum (Biowhittaker). […] Caspase activity was measured directly in the wells by adding equal volume of a lysis buffer containing 25 μM DEVD-rodamine 110 (Roche Molecular Biochemicals), and allowed the reaction to proceed at 37C for 1 to 2 hours. Release of rodarmine 110 was monitored with a Wallac Victor2 fluorescence plate reader with excitation filter 485 nm and emission filter 535 nm.

FLAG-TL1β: FLAG-tagged soluble form of the TL1 (aa 72-251) protein
binding to cells expressing full length or DD-deleted DR3 (DR3): consisitently detected

B1: TR6.Fc: full length TR6 (aa 1-300) fused to the Fc domain of human IgG1 (protein)
chain: VAETPTYPWRDAETGERLVCAQCPPGTFVQRPCRRDSPTTCGPCPPRHYTQFWNYLERCRYCNVLCGEREEEARACHATHNRACRCRTGFFAHAGFCLEHASCPPGAGVIAPGTPSQNTQCQPCPPGTFSASSSSSEQCQPHRNCTALGLALNVPGSSSHDTLCTSCTGFPLSTRVPGAEECERAVIDFVAFQDISIKRLQRLLQALEAPEGWGPTPRAGRAALQLKLRRRLTELLGAQDGALLVRLLQALRVARMPGLERSVRERFLPVH
modifications: left off: a dimerising Fc or GST
notes: full length TR6 (aa 1-300) fused to the Fc domain of human IgG1
inhibition of TNF-gamma-beta activation of NF-κB (TNF-gamma-beta [1]): able to inhibit
inhibition of TNF-gamma-beta activation of NF-κB (TNF-gamma-beta [1]; listed as TR6-Fc): specifically inhibited
neutralization of TNF-gamma-beta SEAP activity by receptor-Fc (TNF-gamma-beta [2]): can be neutralized by TR6.fc fusion protein in a dose dependent manner
inhibition of TNF-gamma-beta induced caspase activation (TNF-gamma-beta [3]): inhibited by either DR3-Fc or TR6-Fc protein
immunoprecipitation of TNF-gamma-beta (TNF-gamma-beta [4]): can be used to immunoprecipitate TNF-gamma-beta
immunoprecipitation of TNF-gamma-beta (TNF-gamma-beta [4]; listed as TR6-Fc): specifically interacted with FLAG-TNF-gamma-beta
SEAP activity of the Fc protein by itself (TF-1/SRE-SEAP cells): showed no activity
binding to cells expressing TNF-gamma-beta (FACS) (TNF-gamma-beta [5]): specifically bind cells transfected with TNF-gamma-beta
binding to cells expressing TNF-gamma-beta (FACS) (TNF-gamma-beta [5]; listed as TR6-Fc): bound efficiently
inhibition of TNF-gamma-beta-mediated IFNγ secretion (TNF-gamma-beta [6]): able to inhibit

B2: FasL: Fas ligand, positive control for caspase activation in T cells (protein, UniProt P48023 130-281, looked up)
Tumor necrosis factor ligand …: QIGHPSPPPEKKELRKVAHLTGKSNSRSMPLEWEDTYGIVLLSGVKYKKGGLVINETGLYFVYSKVYFRGQSCNNLPLSHKVYMRNSKYPQDLVMMEGKMMSYCTTGQMWARSSYLGAVFNLTSADHLYVNVSELSLVNFEESQTFFGLYKL
caspase activity in PHA-activated T cells (primary T cells): readily measured
